# B1: G-CSF: G-CSF solution (100 μg/mL) administered directly (protein, UniProt P09919 31-207, looked up)
# Granulocyte …: TPLGPASSLPQSFLLKCLEQVRKIQGDGAALQEKLVSECATYKLCHPEELVLLGHSLGIPWAPLSSCPSQALQLAGCLSQLHSGLFLYQGLLQALEGISPELGPTLDTLQLDVADFATTIWQQMEELGMAPALQPTQGAMPAFASAFQRRAGGVLVASHLQSFLEVSYRVLRHLAQP
# Assay: Rat intravenous administration test of polymer micelle encapsulating G-CSF (Example 1), plasma G-CSF concentration
# Assay type: in vivo
# Conditions: 100 μg/kg i.v. tail vein, male Wistar rats; FIG. 3
# Description: PEG-pGlu (10-40, 30% Chol) was used as a block copolymer. The block copolymer was weighed in a vial. A 20 mM 2-morpholinoethanesulfonic acid monohydrate (MES) buffer (pH 5) was added thereto so as to achieve a polymer concentration of 2 mg/mL and the mixture was vigorously stirred at 4° C. overnight. The polymer solution was subjected to ultrasonic irradiation (in an ice water bath, Low, interval of 1 second, 10 minutes) using a biodisruptor (High Power Unit manufactured by NIHONSEIKI KAISHA LTD.) and then treated with a 0.22-μm membrane filter. Thus, an empty micelle solution having a polymer concentration of 2 mg/mL was obtained. […]
# The solution of the polymer micelles encapsulating G-CSF obtained above was administered to male Wistar rats via the tail vein. […] The plasma G-CSF concentration was measured using a G-CSF-ELISA kit (manufactured by RayBiotech, Inc.). […]
# FIG. 3 illustrates the results of Example 1 (average±SD). FIG. 3 also illustrates theoretical values for the time-course of plasma concentration of a mixed polymer micelle (1:1), which theoretical values were calculated from the results of the time-courses of the plasma concentration of the test examples using PEG-pGlu (10-40, 30% Chol) and PEG-pGlu (10-40, 60% C8).
molecule,measurement,value
B1,retention time in plasma,extremely short

# Reference: patent US8574601B2, “Sustained-release polymer micelle disruptable by HDL” (Nanocarrier Co., Ltd., priority 2010, dated 2013)
